In publication PMC10450190, “RIG-I recognizes metabolite-capped RNAs as signaling ligands”:

T1: RIG-I (UniProt O95786 1-925)
T1 sequence: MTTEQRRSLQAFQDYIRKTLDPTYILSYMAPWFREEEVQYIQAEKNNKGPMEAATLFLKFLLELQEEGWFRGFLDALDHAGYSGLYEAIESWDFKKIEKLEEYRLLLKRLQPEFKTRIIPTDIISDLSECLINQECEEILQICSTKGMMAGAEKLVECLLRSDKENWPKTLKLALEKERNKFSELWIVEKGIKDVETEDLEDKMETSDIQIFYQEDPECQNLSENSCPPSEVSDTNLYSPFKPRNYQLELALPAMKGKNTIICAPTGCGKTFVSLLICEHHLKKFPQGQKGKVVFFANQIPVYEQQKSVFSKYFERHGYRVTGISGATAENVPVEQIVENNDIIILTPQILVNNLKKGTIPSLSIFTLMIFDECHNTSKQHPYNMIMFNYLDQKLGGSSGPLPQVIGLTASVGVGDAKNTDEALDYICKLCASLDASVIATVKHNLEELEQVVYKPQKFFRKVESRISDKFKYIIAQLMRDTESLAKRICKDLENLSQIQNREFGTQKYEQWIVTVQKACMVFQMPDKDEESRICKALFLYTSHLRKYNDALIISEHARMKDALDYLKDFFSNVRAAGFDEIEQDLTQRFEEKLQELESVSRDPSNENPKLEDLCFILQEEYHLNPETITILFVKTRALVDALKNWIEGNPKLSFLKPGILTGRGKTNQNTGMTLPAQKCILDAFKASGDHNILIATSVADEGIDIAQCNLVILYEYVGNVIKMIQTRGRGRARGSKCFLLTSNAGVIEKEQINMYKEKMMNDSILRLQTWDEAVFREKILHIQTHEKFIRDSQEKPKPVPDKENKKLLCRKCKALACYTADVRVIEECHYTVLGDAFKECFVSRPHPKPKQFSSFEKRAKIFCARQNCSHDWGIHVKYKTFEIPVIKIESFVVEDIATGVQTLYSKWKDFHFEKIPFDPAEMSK


Biological target: T1, RIG-I
Assay: competition (fluorescence polarization); 0.5 mM ATP; vs labeled 5' PPP ds39; 50 mM MOPS pH 7.4, 5 mM DTT, 5 mM MgCl2, 0.01% Tween20; 25 C (ATPase, 2 mM ATP; FP, 0.5 mM ATP); EMSA 4 C with 2 mM ATP, 75 nM RIG-I, 25 nM RNA
Settings: protein: recombinant; tags: none (6xHis-SUMO removed by Ulp1); label: none; single-stranded

Binder	binding result
AGUUGGUGGUUGUUGUGUGUUUGUGGUUGGUUUGUUUGG (ssRNA, 5' triphosphate) [5' PPP ss39]	no binding
AGUUGGUGGUUGUUGUGUGUUUGUGGUUGGUUUGUUUGG (ssRNA, 5' NAD+ cap) [5' NAD+ ss39]	no binding
